What all share (test): other fluorescence titration
The target in assay [1] is 147-bp nucleosome, which contains no linker DNA (Nuc147) (Xenopus laevis).
Assay [2] addresses 207-bp linker DNA-containing nucleosome (Nuc207) (Xenopus laevis).
Assay [3] addresses histone H2A-H2B complex, fluorescently labeled (Xenopus laevis) (UniProt P06897).
Assay [4] deals with histone H3-H4 complex, fluorescently labeled (Xenopus laevis) (UniProt P84233).
Assay [5] addresses tail-less histone H2A-H2B complex, fluorescently labeled (Xenopus laevis) (UniProt P06897).
Assay [6] addresses an individual nucleosome, whether mono or as part of an array.
In assay [7] the target is tri-nucleosome array NLE (nonlinker-ended), 561-bp DNA (Xenopus laevis).
For assay [8], the target named is tri-nucleosome array LE (linker-ended), 621-bp DNA (Xenopus laevis).

The values below come from article PMC3308894.

Several values for one entry are separate records, joined by “and”; a condition that tells them apart may be missing. Identical values can stand only once. Where only a bound is given, the exact number is not on record here.

Turning to “SSRP1 (structure-specific recognition protein 1) subunit of FACT (from UniProt Q08945 1-709) (natural protein)”, the Kd was over 1000 nM in assay [1] and 67 nM in assay [2].

Substance “FACTΔCTD (Spt16 acidic C-terminal domain truncation + SSRP1) (from UniProt Q9Y5B9;Q08945) (complex)” returned a fold increase of Kd(app) against full-length FACT in assay [3] of 6 fold. In assay [4], the Kd is over 1000 nM. In assay [2], the fold less affinity than FACT turned out to be 20 fold and the fold less affinity than SSRP1 alone was 7 fold.

Consider “FACT (facilitates chromatin transcription) complex, full-length, de-phosphorylated (from UniProt Q9Y5B9;Q08945)”, for which the fold lower affinity than for tail-containing H2A-H2B in assay [5] came out at 7 fold. The Kd in assay [3] stood at 31 nM; in assay [1] it was 64 nM; in assay [2], 22 nM; in assay [7], 36 nM; in assay [8], 26 nM. Further, in assay [6], the stoichiometry N (FACT molecules per nucleosome) was 1 and 2. Moreover, the stoichiometry N (FACT:tri-nucleosome) in assay [7] came to 2.4; in assay [8] it was 3.3.

In assay [3], “Spt16 (Suppressor of ty 16) subunit of FACT (from UniProt Q9Y5B9 1-1047) (natural protein)” displayed a Kd of 85 nM.

As usually defined, the Kd is a measure of binding affinity in units of concentration. A lower Kd goes with higher affinity.
